Substrate in the series: Acetylcholine
The note with it: pH 8; 27 °C.

B1: unnamed (protein)
chain: MRPPQCLLHTPSLASPLLLLLLWLLGGGVGAEGREDAELLVTVRGGRLRGIRLKTPGGPVSAFLGIPFAEPPMGPRRFLPPEPKQPWSGVVDATTFQSVCYQAVDTLYPGFEGTEMWNPNRELSEDCLYLNVWTPYPRPTSPTPVLVWIYGGGFYSGASSLDVYDGRFLVQAERTVLVSMNYRVGAFGFLALPGSREAPGNVGLLDQRLALQWVQENVAAFGGDPTSVTLFGESAGAASVGMHLLSPPSRGLFHRAVLQSGAPNGPWATVGMGEARRRATQLAHLVGCPPGGTGGNDTELVACLRTRPAQVLVNHAAHVLPQESVFRFSFVPVVDGDFLSDTPEALINAGDFHGLQVLVGVVKDEGSYFLVYGAPGFSKDNESLISRAEFLAGVRVGVPQVSDLAAEAVVLHYTDWLHPEDPARLREALSDVVGDHNVVCPVAQLAGRLAAQGARVYAYVFEHRASTLSWPLWMGVPHGYEIEFIFGIPLDPSRNYTAEEKIFAQRLMRYWANFARTGDPNEPRDPKAPQWPPYTAGAQQYVSLDLRPLEVRRGLRAQACAFWNRFLPKLLSATDTLDEAERQWKAEFHRWSSYMVHWKNQFDHYSKQDRCSDL
As to B1, the Km – broadly, the substrate concentration at which the rate is half of its maximum – came to 300 µM; the kcat (commonly the number of substrate molecules converted per active site and unit of time at saturation) was 3330 s⁻¹; the kcat/Km (commonly the turnover number divided by the Michaelis constant) amounted to 1.11e+07 M⁻¹ s⁻¹.

B2: unnamed (protein)
chain: MRPPQCLLHTPSLASPLLLLLLWLLGGGVGAEGREDAELLVTVRGGRLRGIRLKTPGGPVSAFLGIPFAEPPMGPRRFLPPEPKQPWSGVVDATTFQSVCYQYVDTLYPGFEGTEMWNPNRELSEDCLYLNVWTPYPRPTSPTPVLVWIYGGGFYSGASSLDVYDGRFLVQAERTVLVSMNYRVGAFGFLALPGSREAPGNVGLLDQRLALQWVQENVAAFGGDPTSVTLFGESAGAASVGMHLLSPPSRGLFHRAVLQSGAPNGPWATVGMGEARRRATQLAHLVGCPPGGTGGNDTELVACLRTRPAQVLVNHEWHVLPQESVFRASFVPVVDGDFLSDTPEALINAGDFHGLQVLVGVVKDEGSYFLVYGAPGFSKDNESLISRAEFLAGVRVGVPQVSDLAAEAVVLHYTDWLHPEDPARLREALSDVVGDHNVVCPVAQLAGRLAAQGARVYAYVFEHRASTLSWPLWMGVPHGYEIEFIFGIPLDPSRNYTAEEKIFAQRLMRYWANFARTGDPNEPRDPKAPQWPPYTAGAQQYVSLDLRPLEVRRGLRAQACAFWNRFLPKLLSATDTLDEAERQWKAEFHRWSSYMVHWKNQFDHYSKQDRCSDL
For B2, the Km was 310 µM, the kcat turned out to be 2000 s⁻¹ and the kcat/Km stood at 6.45e+06 M⁻¹ s⁻¹.

B3: unnamed (protein)
chain: MRPPQCLLHTPSLASPLLLLLLWLLGGGVGAEGREDAELLVTVRGGRLRGIRLKTPGGPVSAFLGIPFAEPPMGPRRFLPPEPKQPWSGVVDATTFQSVCYQAVDTLYPGFEGTEMWNPNRELSEDCLYLNVWTPYPRPTSPTPVLVWIYGGGFYSGASSLDVYDGRFLVQAERTVLVSMNYRVGAFGFLALPGSREAPGNVGLLDQRLALQWVQENVAAFGGDPTSVTLFGESAGAASVGMHLLSPPSRGLFHRAVLQSGAPNGPWATVGMGEARRRATQLAHLVGCPPGGTGGNDTELVACLRTRPAQVLVNHEAHVLPQESVFRFSFVPVVDGDFLSDTPEALINAGDFHGLQVLVGVVKDEGSYFLVYGAPGFSKDNESLISRAEFLAGVRVGVPQVSDLAAEAVVLHYTDWLHPEDPARLREALSDVVGDHNVVCPVAQLAGRLAAQGARVYAYVFEHRASTLSWPLWMGVPHGYEIEFIFGIPLDPSRNYTAEEKIFAQRLMRYWANFARTGDPNEPRDPKAPQWPPYTAGAQQYVSLDLRPLEVRRGLRAQACAFWNRFLPKLLSATDTLDEAERQWKAEFHRWSSYMVHWKNQFDHYSKQDRCSDL
B3: the Km turned out to be 300 µM, the kcat came out at 7000 s⁻¹ and the kcat/Km worked out at 2.33e+07 M⁻¹ s⁻¹.

B4: unnamed (protein)
chain: MRPPQCLLHTPSLASPLLLLLLWLLGGGVGAEGREDAELLVTVRGGRLRGIRLKTPGGPVSAFLGIPFAEPPMGPRRFLPPEPKQPWSGVVDATTFQSVCYQYVDTLYPGFEGTEMWNPNRELSEDCLYLNVWTPYPRPTSPTPVLVWIYGGGFYSGASSLDVYDGRFLVQAERTVLVSMNYRVGAFGFLALPGSREAPGNVGLLDQRLALQWVQENVAAFGGDPTSVTLFGESAGAASVGMHLLSPPSRGLFHRAVLQSGAPNGPWATVGMGEARRRATQLAHLVGCPPGGTGGNDTELVACLRTRPAQVLVNHEWHVLPQESVFRFSFVPVVDGDFLSDTPEALINAGDFHGLQVLVGVVKDEGSYFLVAGAPGFSKDNESLISRAEFLAGVRVGVPQVSDLAAEAVVLHYTDWLHPEDPARLREALSDVVGDHNVVCPVAQLAGRLAAQGARVYAYVFEHRASTLSWPLWMGVPHGYEIEFIFGIPLDPSRNYTAEEKIFAQRLMRYWANFARTGDPNEPRDPKAPQWPPYTAGAQQYVSLDLRPLEVRRGLRAQACAFWNRFLPKLLSATDTLDEAERQWKAEFHRWSSYMVHWKNQFDHYSKQDRCSDL
Consider B4, for which the Km is 300 µM, the kcat was determined as 4170 s⁻¹ and the catalytic efficiency (kcat/Km) was determined as 1.39e+07 M⁻¹ s⁻¹.

B5: unnamed (protein)
chain: MRPPQCLLHTPSLASPLLLLLLWLLGGGVGAEGREDAELLVTVRGGRLRGIRLKTPGGPVSAFLGIPFAEPPMGPRRFLPPEPKQPWSGVVDATTFQSVCYQYVDTLYPGFEGTEMWNPNRELSEDCLYLNVWTPYPRPTSPTPVLVWIYGGGFYSGASSLDVYDGRFLVQAERTVLVSMNYRVGAFGFLALPGSREAPGNVGLLDQRLALQWVQENVAAFGGDPTSVTLFGESAGAASVGMHLLSPPSRGLFHRAVLQSGAPNGPWATVGMGEARRRATQLAHLVGCPPGGTGGNDTELVACLRTRPAQVLVNHEWHVLPQESVFRFSFVPVVDGDFLSDTPEALINAGDFHGLQVLVGVVKDEGSAFLVYGAPGFSKDNESLISRAEFLAGVRVGVPQVSDLAAEAVVLHYTDWLHPEDPARLREALSDVVGDHNVVCPVAQLAGRLAAQGARVYAYVFEHRASTLSWPLWMGVPHGYEIEFIFGIPLDPSRNYTAEEKIFAQRLMRYWANFARTGDPNEPRDPKAPQWPPYTAGAQQYVSLDLRPLEVRRGLRAQACAFWNRFLPKLLSATDTLDEAERQWKAEFHRWSSYMVHWKNQFDHYSKQDRCSDL
On to B5, for which the Km amounted to 100 µM, the kcat was 1670 s⁻¹ and the kcat/Km came out at 1.67e+07 M⁻¹ s⁻¹.

B6: unnamed (protein)
chain: MRPPQCLLHTPSLASPLLLLLLWLLGGGVGAEGREDAELLVTVRGGRLRGIRLKTPGGPVSAFLGIPFAEPPMGPRRFLPPEPKQPWSGVVDATTFQSVCYQAVDTLYPGFEGTEMWNPNRELSEDCLYLNVWTPYPRPTSPTPVLVWIYGGGFYSGASSLDVYDGRFLVQAERTVLVSMNYRVGAFGFLALPGSREAPGNVGLLDQRLALQWVQENVAAFGGDPTSVTLFGESAGAASVGMHLLSPPSRGLFHRAVLQSGAPNGPWATVGMGEARRRATQLAHLVGCPPGGTGGNDTELVACLRTRPAQVLVNHAWHVLPQESVFRFSFVPVVDGDFLSDTPEALINAGDFHGLQVLVGVVKDEGSYFLVYGAPGFSKDNESLISRAEFLAGVRVGVPQVSDLAAEAVVLHYTDWLHPEDPARLREALSDVVGDHNVVCPVAQLAGRLAAQGARVYAYVFEHRASTLSWPLWMGVPHGYEIEFIFGIPLDPSRNYTAEEKIFAQRLMRYWANFARTGDPNEPRDPKAPQWPPYTAGAQQYVSLDLRPLEVRRGLRAQACAFWNRFLPKLLSATDTLDEAERQWKAEFHRWSSYMVHWKNQFDHYSKQDRCSDL
With B6, the Km amounted to 240 µM, the kcat amounted to 6670 s⁻¹ and the kcat/Km was 2.78e+07 M⁻¹ s⁻¹.

B7: unnamed (protein)
chain: MRPPQCLLHTPSLASPLLLLLLWLLGGGVGAEGREDAELLVTVRGGRLRGIRLKTPGGPVSAFLGIPFAEPPMGPRRFLPPEPKQPWSGVVDATTFQSVCYQAVDTLYPGFEGTEMWNPNRELSEDCLYLNVWTPYPRPTSPTPVLVWIYGGGFYSGASSLDVYDGRFLVQAERTVLVSMNYRVGAFGFLALPGSREAPGNVGLLDQRLALQWVQENVAAFGGDPTSVTLFGESAGAASVGMHLLSPPSRGLFHRAVLQSGAPNGPWATVGMGEARRRATQLAHLVGCPPGGTGGNDTELVACLRTRPAQVLVNHEWHVLPQESVFRFSFVPVVDGDFLSDTPEALINAGDFHGLQVLVGVVKDEGSYFLVYGAPGFSKDNESLISRAEFLAGVRVGVPQVSDLAAEAVVLHYTDWLHPEDPARLREALSDVVGDHNVVCPVAQLAGRLAAQGARVYAYVFEHRASTLSWPLWMGVPHGYEIEFIFGIPLDPSRNYTAEEKIFAQRLMRYWANFARTGDPNEPRDPKAPQWPPYTAGAQQYVSLDLRPLEVRRGLRAQACAFWNRFLPKLLSATDTLDEAERQWKAEFHRWSSYMVHWKNQFDHYSKQDRCSDL
Take B7: the Km is 130 µM, the kcat was 6330 s⁻¹ and the kcat/Km came out at 4.87e+07 M⁻¹ s⁻¹.

B8: unnamed (protein)
chain: MRPPQCLLHTPSLASPLLLLLLWLLGGGVGAEGREDAELLVTVRGGRLRGIRLKTPGGPVSAFLGIPFAEPPMGPRRFLPPEPKQPWSGVVDATTFQSVCYQYVDTLYPGFEGTEMWNPNRELSEDCLYLNVWTPYPRPTSPTPVLVWIYGGGFYSGASSLDVYDGRFLVQAERTVLVSMNYRVGAFGFLALPGSREAPGNVGLLDQRLALQWVQENVAAFGGDPTSVTLFGESAGAASVGMHLLSPPSRGLFHRAVLQSGAPNGPWATVGMGEARRRATQLAHLVGCPPGGTGGNDTELVACLRTRPAQVLVNHAWHVLPQESVFRFSFVPVVDGDFLSDTPEALINAGDFHGLQVLVGVVKDEGSYFLVYGAPGFSKDNESLISRAEFLAGVRVGVPQVSDLAAEAVVLHYTDWLHPEDPARLREALSDVVGDHNVVCPVAQLAGRLAAQGARVYAYVFEHRASTLSWPLWMGVPHGYEIEFIFGIPLDPSRNYTAEEKIFAQRLMRYWANFARTGDPNEPRDPKAPQWPPYTAGAQQYVSLDLRPLEVRRGLRAQACAFWNRFLPKLLSATDTLDEAERQWKAEFHRWSSYMVHWKNQFDHYSKQDRCSDL
Regarding B8, the Michaelis-Menten constant (Km) turned out to be 280 µM, the kcat worked out at 6330 s⁻¹ and the kcat/Km is 2.26e+07 M⁻¹ s⁻¹.

B9: unnamed (protein)
chain: MRPPQCLLHTPSLASPLLLLLLWLLGGGVGAEGREDAELLVTVRGGRLRGIRLKTPGGPVSAFLGIPFAEPPMGPRRFLPPEPKQPWSGVVDATTFQSVCYQYVNTLYPGFEGTEMWNPNRELSEDCLYLNVWTPYPRPTSPTPVLVWIYGGGFYSGASSLDVYDGRFLVQAERTVLVSMNYRVGAFGFLALPGSREAPGNVGLLDQRLALQWVQENVAAFGGDPTSVTLFGESAGAASVGMHLLSPPSRGLFHRAVLQSGAPNGPWATVGMGEARRRATQLAHLVGCPPGGTGGNDTELVACLRTRPAQVLVNHEWHVLPQESVFRFSFVPVVDGDFLSDTPEALINAGDFHGLQVLVGVVKDEGSYFLVYGAPGFSKDNESLISRAEFLAGVRVGVPQVSDLAAEAVVLHYTDWLHPEDPARLREALSDVVGDHNVVCPVAQLAGRLAAQGARVYAYVFEHRASTLSWPLWMGVPHGYEIEFIFGIPLDPSRNYTAEEKIFAQRLMRYWANFARTGDPNEPRDPKAPQWPPYTAGAQQYVSLDLRPLEVRRGLRAQACAFWNRFLPKLLSATDTLDEAERQWKAEFHRWSSYMVHWKNQFDHYSKQDRCSDL
Take B9: the Km worked out at 600 µM, the kcat was determined as 4170 s⁻¹ and the kcat/Km was 6.94e+06 M⁻¹ s⁻¹.

The values are drawn from the PETadex activity labels (doi:10.1016/s0021-9258(17)37371-4).
